In assay [1] the target is T1, human FcγRIIIa-V158, extracellular domain with C-terminal Gly/6xHis/GST tag (human, UniProt P08637 17-208).
T1 construct: extracellular domain; Made by Genentech; captured on the plate through an anti-GST antibody; V158 is the allotype as printed; not shown: Gly/6xHis/glutathione S transferase (GST) polypeptide tag at the C terminus
The assay can be described thus: ELISA, cross-linked antibody on anti-GST-captured FcγRIIIa-V158. (In general: ELISA stands for enzyme-linked immunosorbent assay.)

The next assay addresses T2, murine Aβ1-42 peptide (murine, UniProt P12023 672-713).
T2 construct: domain: Aβ1-42
T2 peptide (looked up): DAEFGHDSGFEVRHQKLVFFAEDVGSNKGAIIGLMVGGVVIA
As to the kind of experiment: Aβ ELISA.

T1 sequence (P08637 17-208 F176V): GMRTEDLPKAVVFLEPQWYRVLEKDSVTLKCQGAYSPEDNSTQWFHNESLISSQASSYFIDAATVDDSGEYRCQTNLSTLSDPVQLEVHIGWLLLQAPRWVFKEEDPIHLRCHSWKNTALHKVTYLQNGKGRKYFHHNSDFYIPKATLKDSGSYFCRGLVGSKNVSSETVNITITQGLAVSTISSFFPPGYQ

B1: MABT humanized anti-Aβ IgG4 monoclonal antibody (antibody)
heavy: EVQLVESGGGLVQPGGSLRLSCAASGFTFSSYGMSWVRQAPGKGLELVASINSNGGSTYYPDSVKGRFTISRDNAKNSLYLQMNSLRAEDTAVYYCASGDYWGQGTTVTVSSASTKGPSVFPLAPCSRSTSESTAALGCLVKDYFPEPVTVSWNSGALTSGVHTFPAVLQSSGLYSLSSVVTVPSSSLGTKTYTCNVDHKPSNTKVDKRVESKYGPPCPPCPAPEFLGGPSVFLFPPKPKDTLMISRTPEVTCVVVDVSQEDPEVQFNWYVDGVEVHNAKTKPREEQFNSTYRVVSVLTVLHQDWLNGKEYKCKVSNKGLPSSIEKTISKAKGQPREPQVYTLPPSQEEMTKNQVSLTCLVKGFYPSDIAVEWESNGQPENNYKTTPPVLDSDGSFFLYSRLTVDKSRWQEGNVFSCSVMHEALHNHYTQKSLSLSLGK
light: DIVMTQSPLSLPVTPGEPASISCRSSQSLVYSNGDTYLHWYLQKPGQSPQLLIYKVSNRFSGVPDRFSGSGSGTDFTLKISRVEAEDVGVYYCSQSTHVPWTFGQGTKVEIKRTVAAPSVFIFPPSDEQLKSGTASVVCLLNNFYPREAKVQWKVDNALQSGNSQESVTEQDSKDSTYSLSSTLTLSKADYEKHKVYACEVTHQGLSSPVTKSFNRGEC
notes: also called anti-Aβ MABT; MABT IgG4
In the case of B1, the binding result (in assay [1]; with murine Aβ1-42 peptide) was “binds” each time.

The values above are taken from patent US20120064065A1 (AC IMMUNE S A, published 2012).
